The target in experiment [1] is T1, human PDGF-BB (human, UniProt P01127 82-190). The experiment can be described thus: cell-based or functional assay.
Experiment [2] deals with T1, human PDGF-BB. The experiment can be described thus: cell-based or functional assay. This is another data set of the same source.
Experiment [3] concerns the target T1, human PDGF-BB. The experiment can be described thus: SPR, on immobilized human PDGF-BB (Example 32). Details: t½: unit not given here. (In SPR one partner is held on a chip, and binding of the other changes the refractive index at the surface.)
Experiment [4] deals with T1, human PDGF-BB. The experiment can be described thus: cell-based or functional assay. This is another data set of the same source.
Experiment [5] has as its target T2, human ANG2-RBD-mouse Fc-region fusion (human, UniProt O15123 275-496, limits assumed).
T2 sequence (looked up): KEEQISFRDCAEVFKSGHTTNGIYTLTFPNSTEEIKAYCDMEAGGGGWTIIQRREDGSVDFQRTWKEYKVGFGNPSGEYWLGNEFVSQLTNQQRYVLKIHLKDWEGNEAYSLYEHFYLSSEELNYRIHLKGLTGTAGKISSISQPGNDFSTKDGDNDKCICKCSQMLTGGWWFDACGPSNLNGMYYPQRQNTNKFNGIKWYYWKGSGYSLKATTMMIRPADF
The experiment can be described thus: cell-based or functional assay.

The target of experiment [6] is T1, human PDGF-BB. The experiment can be described thus: cell-based or functional assay. This is another data set of the same source.

Where two headings read alike, the source gives them in different places.

T1 sequence (P01127 82-190 limits assumed): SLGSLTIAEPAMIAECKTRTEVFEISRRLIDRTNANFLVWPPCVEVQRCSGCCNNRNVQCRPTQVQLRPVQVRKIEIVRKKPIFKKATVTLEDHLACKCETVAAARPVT

B1: antibody 0086 (antibody, V domains shown)
VH: EVQLVESGGGLVQPGGSLRLSCAASGFTFSSYWMSWVRQAPEKGLEWVSTISDGGGLTYYADSVKGRFTISRDNAKNSLYLQMNSLRAEDTAVYYCAESGGYTDWLFGYWGQGTLVTVSS
VL: not shown
Consider B1, for which, in the experiment with human PDGF-BB [1], the “Balb-C3T3 Proliferation % neutralization” value is 100%, the “Balb-C3T3 Proliferation IC50” value turned out to be 0.11 nM, the “Pericytes Migration % neutralization” value came out at 100% and the “Pericytes Migration IC50” value was found to be 0.09 nM. In the experiment with human PDGF-BB [1], the “Pericytes Proliferation % neutralization” value amounted to 100% and the “Pericytes Proliferation IC50” value worked out at 0.09 nM.

B2: antibody 0085 (antibody, V domains shown)
VH: EVQLVESGGGLVQPGGSLRLSCAASGFTFSSYWMSWVRQAPEKGLEWVSTISDGGGLTYYADSVKGRFTISRDNAKNSLYLQMNSLRAEDTAVYYCAESGGYTDWLFGYWGQGTLVTVSS
VL: not shown
In the case of B2, in the experiment with human PDGF-BB [1], the “Balb-C3T3 Proliferation % neutralization” value was determined as 100%, the “Balb-C3T3 Proliferation IC50” value was determined as 0.06 nM, the “Pericytes Migration % neutralization” value came to 90% and the “Pericytes Migration IC50” value was found to be 0.15 nM. Moreover, in the experiment with human PDGF-BB [1], the “Pericytes Proliferation % neutralization” value amounted to 100% and the “Pericytes Proliferation IC50” value came out at 0.11 nM.

B3: antibody 0117 (bispecific anti-VEGF/PDGF-B CrossMab antibody) (bispecific antibody, human IgG1, kappa, L234A L235A)
chain 1: DIQLTQSPSSLSASVGDRVTITCSASQDISNYLNWYQQKPGKAPKVLIYFTSSLHSGVPSRFSGSGSGTDFTLTISSLQPEDFATYYCQQYSTVPWTFGQGTKVEIKSSASTKGPSVFPLAPSSKSTSGGTAALGCLVKDYFPEPVTVSWNSGALTSGVHTFPAVLQSSGLYSLSSVVTVPSSSLGTQTYICNVNHKPSNTKVDKKVEPKSCDKTHTCPPCPAPEAAGGPSVFLFPPKPKDTLMASRTPEVTCVVVDVSHEDPEVKFNWYVDGVEVHNAKTKPREEQYNSTYRVVSVLTVLAQDWLNGKEYKCKVSNKALGAPIEKTISKAKGQPREPQVYTLPPCRDELTKNQVSLWCLVKGFYPSDIAVEWESNGQPENNYKTTPPVLDSDGSFFLYSKLTVDKSRWQQGNVFSCSVMHEALHNAYTQKSLSLSPGK
chain 2: not shown
chain 3: EVQLVESGGGLVQPGGSLRLSCAASGYDFTHYGMNWVRQAPGKGLEWVGWINTYTGEPTYAADFKRRFTFSLDTSKSTAYLQMNSLRAEDTAVYYCAKYPYYYGTSHWYFDVWGQGTLVTVSSASVAAPSVFIFPPSDEQLKSGTASVVCLLNNFYPREAKVQWKVDNALQSGNSQESVTEQDSKDSTYSLSSTLTLSKADYEKHKVYACEVTHQGLSSPVTKSFNRGEC
chain 4: not shown
notes: also called anti-PDGFB/VEGF antibody
For orientation: Kd means a measure of binding affinity in units of concentration. For orientation: koff means a measure of how fast the partners let go of each other. As a reminder, the kon is the rate constant with which the complex forms. On to B3, for which, in the experiment with human PDGF-BB [2], the “IC50 Migration-Inhibition human pericytes” value was 0.06 nM and the “IC50 Phospho-Inhibition human pericytes” value came out at 0.055 nM. For the same molecule, in the experiment with human PDGF-BB [3], the Kd was 3 nM, the off-rate constant (koff) came out at 0.000245 s⁻¹, the kon amounted to 76700 M⁻¹ s⁻¹ and the t½ came to 47. In the experiment with human PDGF-BB [4], the “IC50 Proliferation 3T3” value is 0.019 nM and the “IC50 Proliferation human pericytes” value stood at 0.016 nM.

B4: antibody 0144 (bispecific anti-ANG2/PDGF-B CrossMab antibody) (bispecific antibody, human IgG1, kappa, L234A L235A)
heavy 1: SYVLTQPPSVSVAPGQTARITCGGNNIGSKSVHWYQQKPGQAPVLVVYDTSDRPSGIPERFSGSNSGNTATLTISRVEAGDEADYYCQVWDSSSDHWVFGGGTKLTVLSSASTKGPSVFPLAPSSKSTSGGTAALGCLVKDYFPEPVTVSWNSGALTSGVHTFPAVLQSSGLYSLSSVVTVPSSSLGTQTYICNVNHKPSNTKVDKKVEPKSCDKTHTCPPCPAPEAAGGPSVFLFPPKPKDTLMASRTPEVTCVVVDVSHEDPEVKFNWYVDGVEVHNAKTKPREEQYNSTYRVVSVLTVLAQDWLNGKEYKCKVSNKALGAPIEKTISKAKGQPREPQVYTLPPCRDELTKNQVSLWCLVKGFYPSDIAVEWESNGQPENNYKTTPPVLDSDGSFFLYSKLTVDKSRWQQGNVFSCSVMHEALHNAYTQKSLSLSPGK
heavy 2: not shown
light 1: not shown
light 2: not shown
Consider B4, for which, in experiment [5], the “ANG2 specific pTie2-ELISA” value is 6 fold.

B5: mumAb (murine anti-human PDGF-B antibody) (antibody, V domains shown)
VH: QVQLQQSGAELMKPGASVKISCKATGYTFSSYWIEWVKQRPGHGLEWIGEILPGSGSTNYNEKFKVKATFTADTSSNTAYMQLSSLTSEDSAVYYCAQTTQDFDSWGQGTTLTVSS
VL: DIVLTQSPGSLAVSLGQRATISCRASESVDIYGYSFMHWYQQKPGQPPKLLIYRASNLESGIPARFSGSGSRTDFTLTINPVEADDVATYYCQQSNEDPRTFGGGTKLEIK
As for B5, in the experiment with human PDGF-BB [6], the “Balb-C3T3 Proliferation IC50” value was found to be 0.179 nM, the “Pericytes Migration IC50” value worked out at 0.08 nM and the “Pericytes Proliferation IC50” value came out at 0.21 nM.
